Laboratory results taken from patent US20210139607A1 (JACKSON LABORATORY, published 2021).

Biological target: T1, human N-glycanase 1 (NGLY-1) (human, UniProt Q96IV0 2-654)
T1 construct: Endogenous protein in cell lysates, denatured on immunoblots; also called human NGLY1 protein
T1 sequence (looked up): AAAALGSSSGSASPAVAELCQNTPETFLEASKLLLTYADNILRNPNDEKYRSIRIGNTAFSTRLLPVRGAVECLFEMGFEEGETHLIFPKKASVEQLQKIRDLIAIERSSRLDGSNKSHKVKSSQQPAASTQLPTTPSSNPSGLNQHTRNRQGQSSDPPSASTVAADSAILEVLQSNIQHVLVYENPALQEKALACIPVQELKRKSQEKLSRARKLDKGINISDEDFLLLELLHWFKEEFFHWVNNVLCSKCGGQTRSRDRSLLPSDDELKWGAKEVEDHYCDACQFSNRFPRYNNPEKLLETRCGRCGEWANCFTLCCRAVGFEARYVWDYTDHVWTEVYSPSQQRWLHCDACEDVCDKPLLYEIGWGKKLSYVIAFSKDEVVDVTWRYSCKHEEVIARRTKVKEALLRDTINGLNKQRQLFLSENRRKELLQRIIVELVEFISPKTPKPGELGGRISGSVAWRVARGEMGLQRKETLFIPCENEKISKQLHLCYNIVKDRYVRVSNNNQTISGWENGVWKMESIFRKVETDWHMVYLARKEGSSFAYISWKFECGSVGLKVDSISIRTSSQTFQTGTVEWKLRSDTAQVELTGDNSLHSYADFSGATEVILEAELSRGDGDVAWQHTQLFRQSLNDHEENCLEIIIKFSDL
Assay: immunoblot on isogenic human NGLY1 null and wild type iPS cell lines
Protocol: The conjugate was injected into female BALB/cJ mice at a dose of 10 μg per mouse with Alum adjuvant. Mice were immunized by i.p injection three times approximately two (2) weeks apart. Ten days after the third immunization, splenocytes were isolated and fused with SP2 myeloma cells to create hybridoma cell lines. Hybridomas were cultured in 96-well plates and supernatants screened on protein arrays and by ELISA. Positive clones were further validated by western blot using lysates prepared from C57BL/6J and the CRISPR/Cas9 generated null strain as positive and negative controls. Additional immunoblots were used to identify additional clones that generated antibodies capable of cross reacting with human NGLY1 protein. Isogenic human derived NGLY1 null and wild type iPS cell lines providing positive and negative controls evaluation of anti-human NGLY1 cross-reactivity were provided. A single hybridoma gave rise to clone 5G8 that generated an antibody that was specific to both murine and human NGLY1 protein and was used for subsequent studies.

binding result: binds
B1: mouse anti-NGly-1 monoclonal antibody, clone 5G8 (antibody, V domains shown)
VH: QVQLQQSGAELVRPGTSVKVSCKASGYAFINYLIEWVKQRPGQGLEWIGIISPGSGSTNYNEEFRGRATLTADRSSSTAYMQLSSLTSDDSAVYFCARGGLTHYSGSTYEEGFDFWGQGTTLTVSS
VL: QAVVTQESALTTSPGETVTLTCRSSTGAVTTTNYANWVQEKPDHLFTGLIGGTNNRAPGVPARFSGSLIGDKAALTITGAQTDDEAIYFCALWYSNRWVFGGGTKLTVLG
notes: also called anti-NGly-1 monoclonal antibody of the present disclosure; Mouse monoclonal (anti-mouse peptide), JAX Monoclonal Service
